Measurements from the supplement of paper PMC10567573.

B1: CLCN6 (parent)
chain: MAGCRGSLCCCCRWCCCCGERETR

Variants of: B1
Test: protein stability index of a GFP-peptide fusion (GPS, HEK-293T) (PSI 1-6); higher = more stable
Conditions: c terminus: a fixed tail appended
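Also: lentivirally expressed fusions sorted by FACS into six bins by GFP to DsRed ratio, PSI derived from sequencing read proportions per bin multiplied by bin number.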

Protein stability index: each site, then its substitutions
E22: Q 1.83; P 2.12; M 1.65; C 1.89; N 1.48; D 1.92; T 2.09; F 2.16; H 1.73; S 1.65; R 1.69; I 2.15; L 2.3; K 1.49
C15: A 1.97; V 2.08; I 1.87; Y 1.36; S 2; H 2.6; L 2.74; Q 2.39; N 1.76; G 2.04; D 1.71; P 1.5; M 1.65; K 1.82; F 2.99
W14: C 1.53; Q 2.47; H 2.06; M 1.14; R 2.22; N 2.06; G 2.23; A 1.89; F 1.95; T 3.2; L 3.15; E 2.08; Y 1.55; K 2.32; P 2.33
C12: Y 2.23; T 2.59; V 1.94; S 1.96
E20: V 1.93; A 1.96; S 2.25; F 1.55; K 2.22; N 2.36; G 2.24; W 1.11; Q 1.55; H 1.56; D 2.27; C 2.16; I 1.55; R 2.33; L 2.06; Y 1.89; T 1.01
G19: M 2.34; D 2.22; E 1.86; Y 2.41; Q 1.29; I 1.45; C 1.83; T 2.02; K 1.8; P 2.17; W 1.66; N 1.44; H 1.15; A 1.49; F 2.53
T23: M 1.87; R 1.77; S 2.36; N 2.15; P 1.83; Q 1.8; C 2.73; G 1.78; D 2.15
R21: A 2.37; E 2.27; I 1.5; S 2.18; Q 1.39; V 1.66; M 1.08; W 1.52; Y 2.8; N 1.87; F 1.06; C 2.56; L 1.76; K 1.79; D 2.82; T 2.77
C18: S 2.47; G 1.79; L 2.49; A 1.26; N 1.49; V 1.3; K 1.85; H 2.06; P 1.8; D 2.77; W 3.21; Y 1.84; M 1.42; T 1.86; Q 2.58
R13: F 2.78; M 2.13; Q 1.79; Y 2.57; N 2.4; P 1.76; E 2.4; T 1.95; H 2.06; A 2.01; K 1.1; W 3.64; I 1.3; L 2.4; V 1.78; S 1.94; C 2.02; G 2.27
C16: E 2.22; D 2.66; S 1; I 2.23; T 1.86; V 2.02; R 1.28; A 2.12; P 1.33; K 1.65; L 1.55; W 2.86; H 1.47
C17: K 1.89; F 2.29; S 1.45; A 2.48; R 2.67; I 1.62; N 1.52; W 2.41; P 1.8; D 1.96; L 2.55; V 1.41; E 1.8; Y 1.97; Q 1.09; T 1.27
